Columns and labels:
[1] = test system: HeLa1A9 cells; test: Glucuronide excretion experiments in HeLa1A9 cells; format: cell-based, human
Method: The HeLa1A9 cells were pretreated and incubated with fraxetin solutions as reported previously ([Jiang et al., 2011]). Before assays, the HeLa1A9 cells were washed twice with prewarmed (37°C) Hank’s balanced salt solution (HBSS; pH = 7.4). […] At each time point (30, 60, 90, and 120 min), 200 μL of the culture supernatant from each well was collected as samples, and an equal volume of a loading media was used to replenish each well. Next, the collected samples were each mixed with 100 μL ice-cold acetonitrile. The supernatants were subjected to UHPLC analysis after centrifugation (10 min at 13800 × g).
In addition, the excretion rate of intracellular glucuronides was calculated using Equ. 2. Fraction metabolized or the fmet value was defined as the fraction of a dose metabolized based on Equ. 3. The fmet value was regarded as the more appropriate parameter to reflect the extent of drug metabolism in intact cells in the presence of a transporter–enzyme interplay.
(2) Excretion rate=VdC(excretedglucuronide)/dt
where V is the volume of the incubation medium, C is the excreted cumulative concentration of glucuronides, and t denotes the incubation time. Here, dC(excreted glucuronide)/dt describes the changes in glucuronide levels with time.

[2] = substrate: COc1cc2ccc(=O)oc2c(O)c1O; test: cells, lysate or membranes named; conditions: UGT1A9 enzyme, pH 7.4, 37.0 °C
Method: After preincubation at 37°C for 5 min, UDPGA (3.5 mM) was added to the reaction system, and the mixture was incubated for another 30 min. These reactions were terminated by the addition of an equal volume of ice-cold acetonitrile. The mixed samples were centrifuged at 13800 × g for 10 min, and the supernatant was analyzed by ultra-high-performance liquid chromatography (UHPLC). All the experiments were conducted in triplicate.
(§1) The enzyme kinetic parameters were obtained by fitting appropriate kinetic models to the experimental data in GraphPad Prism V5 software (San Diego, CA, United States). The best model was selected based on visual inspection of the Eadie–Hofstee plots ([Qin et al., 2018b]). In brief, if the Eadie–Hofstee plot was linear, formation rates (V) of glucuronides at different substrate concentrations (C) were fitted to the standard equations (1):
(§2) Where Km is the Michaelis–Menten constant, and Vmax is the maximum rate of glucuronidation. The intrinsic clearance (CLint) was computed as Vmax/Km.

[3] = substrate: CC(C)c1cccc(C(C)C)c1O; test: cells, lysate or membranes named; conditions: other: metabolite propofol-G, pH 7.4, 37.0 °C
[4] = substrate: COc1cc2ccc(=O)oc2c(O)c1O; test: Glucuronidation kinetics by HeLa1A9 cell lysate; format: in vitro ADME, human
Method: HeLa1A9 cells were grown in 10 cm dishes for 3 to 4 days and then were washed and harvested in 50 mM Tris buffer (pH = 7.4). The collected cells were sonicated using a tight-fitting Dounce homogenizer in an ice-cold water bath (4°C). […] Next, the cell lysates were centrifuged at 4°C (13800 × g for 10 min). The supernatant to be used in the UGT glucuronidation activity assay was collected, and its protein concentration was measured by the bicinchoninic acid assay (BCA; Beyotime, Shanghai, China).
The incubation system was slightly modified on the basis of a previously published article ([Qin et al., 2018a]). […] After preincubation at 37°C for 5 min, UDPGA (3.5 mM) was added to the reaction system, and the mixture was incubated for another 30 min. These reactions were terminated by the addition of an equal volume of ice-cold acetonitrile. The mixed samples were centrifuged at 13800 × g for 10 min, and the supernatant was analyzed by ultra-high-performance liquid chromatography (UHPLC). All the experiments were conducted in triplicate.
as §1, §2

[5] = other: metabolite G1, pH 7.4, 37.0 °C
[6] = other: metabolite G2, pH 7.4, 37.0 °C

CC(C)c1cccc(C(C)C)c1O[C@@H]1O[C@H](C(=O)O)[C@@H](O)[C@H](O)[C@H]1O [propofol-O-glucuronide]
excretion rate ([1]; propofol 40 μM incubated with HeLa1A9 cells): 0.053 pmol/min
excretion rate ([1]; propofol 80 μM incubated with HeLa1A9 cells): 0.070 pmol/min

B1: UGT1A9 (Homo sapiens) (protein)
chain: GKLLVVPMDGSHWFTMRSVVEKLILRGHEVVVVMPEVSWQLGRSLNCTVKTYSTSYTLEDLDREFKAFAHAQWKAQVRSIYSLLMGSYNDIFDLFFSNCRSLFKDKKLVEYLKESSFDAVFLDPFDNCGLIVAKYFSLPSVVFARGILCHYLEEGAQCPAPLSYVPRILLGFSDAMTFKERVRNHIMHLEEHLLCHRFFKNALEIASEILQTPVTEYDLYSHTSIWLLRTDFVLDYPKPVMPNMIFIGGINCHQGKPLPMEFEAYINASGEHGIVVFSLGSMVSEIPEKKAMAIADALGKIPQTVLWRYTGTRPSNLANNTILVKWLPQNDLLGHPMTRAFITHAGSHGVYESICNGVPMVMMPLFGDQMDNAKRMETKGAGVTLNVLEMTSEDLENALKAVINDKSYKENIMRLSSLHKDRPVEPLDLAVFWVEFVMRHKGAPHLRPAAHDLTWYQYHSLDVIGFLLAVVLTVAFITFKCCAYGYRKCLGKKGRVKKAHKSKTH
Km ([2]; other: metabolite G1): 16 ± 2 µM
Vmax ([2]; other: metabolite G1): 0.00292 µmol/min/mg
Vmax/Km ([2]; other: metabolite G1): 180 µL/min/mg
Km ([2]; other: metabolite G2): 10 ± 1 µM
Vmax ([2]; other: metabolite G2): 0.00144 µmol/min/mg
Vmax/Km ([2]; other: metabolite G2): 150 µL/min/mg
Km ([3]; UGT1A9 enzyme): 53 ± 6 µM

B2: HeLa1A9 cell lysate (Homo sapiens) (protein)
chain: GKLLVVPMDGSHWFTMRSVVEKLILRGHEVVVVMPEVSWQLGRSLNCTVKTYSTSYTLEDLDREFKAFAHAQWKAQVRSIYSLLMGSYNDIFDLFFSNCRSLFKDKKLVEYLKESSFDAVFLDPFDNCGLIVAKYFSLPSVVFARGILCHYLEEGAQCPAPLSYVPRILLGFSDAMTFKERVRNHIMHLEEHLLCHRFFKNALEIASEILQTPVTEYDLYSHTSIWLLRTDFVLDYPKPVMPNMIFIGGINCHQGKPLPMEFEAYINASGEHGIVVFSLGSMVSEIPEKKAMAIADALGKIPQTVLWRYTGTRPSNLANNTILVKWLPQNDLLGHPMTRAFITHAGSHGVYESICNGVPMVMMPLFGDQMDNAKRMETKGAGVTLNVLEMTSEDLENALKAVINDKSYKENIMRLSSLHKDRPVEPLDLAVFWVEFVMRHKGAPHLRPAAHDLTWYQYHSLDVIGFLLAVVLTVAFITFKCCAYGYRKCLGKKGRVKKAHKSKTH
notes: expressed in transfected cells; host or cells: HeLa cells stably transfected with the UGT1A9 gene (HeLa1A9); lysate supernatant
Km ([3]; HeLa1A9 cell lysate): 59 ± 13 µM
Km [4, 5]: 13 ± 2 µM
Vmax [4, 5]: 0.00011 ± 5e-06 µmol/min/mg
Vmax/Km [4, 5]: 9 ± 1 µL/min/mg
Km [4, 6]: 8 ± 1 µM
Vmax [4, 6]: 4.2e-05 ± 2e-06 µmol/min/mg
Vmax/Km [4, 6]: 5 ± 1 µL/min/mg
